Molecular target: T1, KLK14 (UniProt Q9P0G3)
T1 sequence (looked up): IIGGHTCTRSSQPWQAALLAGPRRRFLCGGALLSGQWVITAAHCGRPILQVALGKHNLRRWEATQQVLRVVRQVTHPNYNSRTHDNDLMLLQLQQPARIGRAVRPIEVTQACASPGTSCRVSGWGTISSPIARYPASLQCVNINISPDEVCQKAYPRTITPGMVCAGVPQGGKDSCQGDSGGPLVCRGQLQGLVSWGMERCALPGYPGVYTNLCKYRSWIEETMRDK
Assay: cell-based or functional assay

% inhibition (mean) of KLK14 (30 nM) evoked FLIPR signal in TRPV1 cells; LEKTI D6 at 0.003 µM: -4% | % inhibition (mean) of KLK14 (30 nM) evoked FLIPR signal in TRPV1 cells; LEKTI D6 at 0.01 µM: 21.6% | % inhibition (mean) of KLK14 (30 nM) evoked FLIPR signal in TRPV1 cells; LEKTI D6 at 0.03 µM: -11.1% | % inhibition (mean) of KLK14 (30 nM) evoked FLIPR signal in TRPV1 cells; LEKTI D6 at 0.1 µM: 12.4% | % inhibition (mean) of KLK14 (30 nM) evoked FLIPR signal in TRPV1 cells; LEKTI D6 at 0.3 µM: 16.8% | % inhibition (mean) of KLK14 (30 nM) evoked FLIPR signal in TRPV1 cells; LEKTI D6 at 1 µM: 46.9% | % inhibition (mean) of KLK14 (30 nM) evoked FLIPR signal in TRPV1 cells; LEKTI D6 at 3 µM: 56.4% | % inhibition (mean) of KLK14 (30 nM) evoked FLIPR signal in TRPV1 cells; LEKTI D6 at 10 µM: 39.3% | % inhibition (mean) of KLK14 (30 nM) evoked FLIPR signal in TRPV4 cells; LEKTI D6 at 0.003 µM: -24.1% | % inhibition (mean) of KLK14 (30 nM) evoked FLIPR signal in TRPV4 cells; LEKTI D6 at 0.01 µM: -11% | % inhibition (mean) of KLK14 (30 nM) evoked FLIPR signal in TRPV4 cells; LEKTI D6 at 0.03 µM: 9.9% | % inhibition (mean) of KLK14 (30 nM) evoked FLIPR signal in TRPV4 cells; LEKTI D6 at 0.1 µM: 6.4% | % inhibition (mean) of KLK14 (30 nM) evoked FLIPR signal in TRPV4 cells; LEKTI D6 at 0.3 µM: 1.5% | % inhibition (mean) of KLK14 (30 nM) evoked FLIPR signal in TRPV4 cells; LEKTI D6 at 1 µM: 6.3% | % inhibition (mean) of KLK14 (30 nM) evoked FLIPR signal in TRPV4 cells; LEKTI D6 at 3 µM: 26.7% | % inhibition (mean) of KLK14 (30 nM) evoked FLIPR signal in TRPV4 cells; LEKTI D6 at 10 µM: 73%
B1: LEKTI Domain 6 (protein)
chain: ESGKATSYAELCSEYRKLVRNGKLACTRENDPIQGPDGKVHGNTCSMCEVFFQAEEEEKKKKEGKSRN
